From patent publication US20050249730A1 (PIERRE FABRE MEDICAMENT, published 2005)

Biological target: T1, insulin receptor isoform A (IR-A) from lysates of R-/IR-A cells (UniProt P06213-2 28-1370)
T1 construct: Whole receptor in the lysate of R- fibroblasts stably transfected with IR-A cDNA
Experiment: immunoprecipitation from R-/IR-A cell lysate, SDS-PAGE, immunoblot with anti-IR beta-subunit

T1 sequence (P06213 other isoform, or with tags, fused parts or gaps limits assumed): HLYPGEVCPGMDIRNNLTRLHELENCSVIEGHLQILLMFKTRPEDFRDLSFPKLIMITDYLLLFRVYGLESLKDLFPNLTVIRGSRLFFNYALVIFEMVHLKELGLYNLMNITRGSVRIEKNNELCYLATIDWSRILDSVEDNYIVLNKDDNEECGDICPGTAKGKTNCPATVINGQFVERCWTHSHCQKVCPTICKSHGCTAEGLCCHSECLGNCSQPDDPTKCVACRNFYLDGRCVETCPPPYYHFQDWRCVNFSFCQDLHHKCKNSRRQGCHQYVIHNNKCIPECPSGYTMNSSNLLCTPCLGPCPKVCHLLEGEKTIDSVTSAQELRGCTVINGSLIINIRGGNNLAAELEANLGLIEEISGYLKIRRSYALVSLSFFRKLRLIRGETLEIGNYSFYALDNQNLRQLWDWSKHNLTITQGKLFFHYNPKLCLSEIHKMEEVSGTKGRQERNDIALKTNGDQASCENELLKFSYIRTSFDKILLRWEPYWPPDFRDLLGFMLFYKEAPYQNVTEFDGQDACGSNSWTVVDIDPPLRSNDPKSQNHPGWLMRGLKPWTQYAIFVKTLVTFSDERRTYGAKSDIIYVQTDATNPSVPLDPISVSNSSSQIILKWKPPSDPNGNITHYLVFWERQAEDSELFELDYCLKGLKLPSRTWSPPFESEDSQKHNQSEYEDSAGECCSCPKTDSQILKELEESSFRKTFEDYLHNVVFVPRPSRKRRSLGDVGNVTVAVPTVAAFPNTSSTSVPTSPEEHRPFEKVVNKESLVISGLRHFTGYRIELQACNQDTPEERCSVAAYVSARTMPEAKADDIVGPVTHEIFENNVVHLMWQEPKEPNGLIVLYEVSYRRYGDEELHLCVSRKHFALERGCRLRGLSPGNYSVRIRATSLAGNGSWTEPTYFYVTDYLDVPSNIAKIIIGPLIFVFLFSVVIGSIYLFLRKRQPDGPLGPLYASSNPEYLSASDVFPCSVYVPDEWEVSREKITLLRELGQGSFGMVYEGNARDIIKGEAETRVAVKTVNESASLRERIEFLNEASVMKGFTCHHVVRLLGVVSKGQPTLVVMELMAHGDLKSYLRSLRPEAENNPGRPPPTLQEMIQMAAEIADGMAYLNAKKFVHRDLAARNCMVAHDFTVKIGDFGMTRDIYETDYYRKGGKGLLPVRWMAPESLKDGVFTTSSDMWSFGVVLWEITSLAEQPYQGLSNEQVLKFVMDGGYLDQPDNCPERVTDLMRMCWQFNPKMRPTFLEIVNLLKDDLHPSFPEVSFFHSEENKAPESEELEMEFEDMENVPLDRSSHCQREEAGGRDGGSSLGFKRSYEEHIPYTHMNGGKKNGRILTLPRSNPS

B1: humanized antibody h7C10 (humanized form 1 of 7C10: humanized 7C10 VH 1 with humanized 7C10 VL 1) (antibody, V domains shown)
VH: QVQLQESGPGLVKPSETLSLTCTVSGYSITGGYLWNWIRQPPGKGLEWMGYISYDGTNNYKPSLKDRITISRDTSKNQFSLKLSSVTAADTAVYYCARYGRVFFDYWGQGTLVTVSS
VL: DVVMTQSPLSLPVTPGEPASISCRSSQSIVHSNGNTYLQWYLQKPGQSPQLLIYKVSNRLYGVPDRFSGSGSGTDFTLKISRVEAEDVGVYYCFQGSHVPWTFGQGTKVEIK
notes: Human IgG1/kappa; also called 7H2HM; A2CHM
B1: no binding.
